Data as given in article PMC10247848.

Key:
[1] = Pi release from G6P in HeLa lysates, 24 h; conditions: glycan lost; control: wild type
[2] = Western blot, total hG6Pase-α in HeLa lysates, 24 h; conditions: glycan lost; control: wild type

B1: human glucose-6-phosphatase-α (hG6Pase-α): N96A (protein)
parent chain: MEEGMNVLHDFGIQSTHYLQVNYQDSQDWFILVSVIADLRNAFYVLFPIWFHLQEAVGIKLLWVAVIGDWLNLVFKWILFGQRPYWWVLDTDYYSNTSVPLIKQFPVTCETGPGSPSGHAMGTAGVYYVMVTSTLSIFQGKIKPTYRFRCLNVILWLGFWAVQLNVCLSRIYLAAHFPHQVVAGVLSGIAVAETFSHIHSIYNASLKKYFLITFFLFSFAIGFYLLLKGLGVDLLWTLEKAQRWCEQPEWVHIDTTPFASLLKNLGTLFGLGLALNSSMYRESCKGKLSKWLPFRLSSIVASLVLLHVFDSLKPPSQVELVFYVLSFCKSAVVPLASVSVIPYCLAQVLGQPHKKSL
Question: Which “enzymatic_activity, percent_of_wt” value [1] does the source give for B1 here?
Answer: The value was “abolishes, 0.9 ± 0.8 vs 100 ± 21.6”.

Question: What about the “expression_or_secretion, percent_of_wt” value [2] of the same protein?
Answer: Its value is “no change, 109.0 ± 16.9 vs 100.0 ± 8.2”.
